Measurements published in patent US20100104550A1 (ADELAIDE RESEARCH AND INNOVATION, published 2010).

Tests used:
[1] = target: EGF receptor (EGFR) on F98/EGFR rat glioma cells engineered to express 10^6 EGFR per cell (UniProt P00533 25-1210); test: cell-based or functional assay
[2] = target: EGF receptor (EGFR) on MDA231luc cells (luciferase-expressing derivative of EGFR-positive human brea (human (human breast carcinoma cells), UniProt P00533 25-1210)); test: cell-based or functional assay

B1: EGF-SubA fusion protein (Cys-tag, linker, human EGF, linker, SubA 22-347) (other)
chain: MKESCAKKFQRQHMDSGGGGSGGGGSGGGGSMGNSDSECPLSHDGYCLHDGVCMYIEALDKYACNCVVGYIGERCQYRDLKWWELRSMADIGSEKPWYFDAIGLTETTMSLTDKNTPVVVSVVDSGVAFIGGLSDSEFAKFSFTQDGSPFPVKKSEALYIHGTAMASLIASRYGIYGVYPHALISSRRVIPDGVQDSWIRAIESIMSNVFLAPGEEKIINISGGQKGVASASVWTELLSRMGRNNDRLIVAAVGNDGADIRKLSAQQRIWPAAYHPVSSVNKKQDPVIRVAALAQYRKGETPVLHGGGITGSRFGNNWVDIAAPGQNITFLRPDAKTGTGSGTSEATAIVSGVLAAMTSCNPRATATELKRTLLESADKYPSLVDKVTEGRVLNAEKAISMFCKKNYIPVRQGRMSEEL
IC50 of cytotoxicity toward F98/EGFR cells (72 h, Cell Proliferation Assay) [1]: 5 pM | fold difference in cytotoxicity, F98/EGFR cells against parental F-98 cells [1]: 500 fold | IC50 of cytotoxicity toward MDA-231luc cells (72 h, Cell Proliferation Assay) [2]: ~50 pM
